Reference: paper PMC11128199 (JCI Insight, 2024)

Target: T1, stabilized SARS-CoV-2 Omicron S ECD HexaPro (SARS-CoV-2 Omicron BA.1, stabilised)
T1 construct: also called prefusion Omicron BA.1 S trimer; BA.1 S
Assay: cryo-EM structure
Conditions: both partners purified

B1: 58G6 Fab (Fab, V domains shown)
VH: QMQLVQSGPEVKKPGTSVKVSCKASGFTFSSSAVQWVRQARGQHLEWIGWIVVGSGNTNYAQKFQERVTLTRDMSTRTAYMELSSLRSEDTAVYYCAAPNCNSTTCHDGFDIWGQGTVVTVSS
VL: EIVLTQSPGTLSLSPGERATLSCRASQSVRSSYLGWYQQKPGQAPRLLIYGASSRATGIPDRFSGSGSGTDFTLTISRLESEDFAVYYCQQYDNSPWTFGQGTKVEIK
  stoichiometry N: 1 Fabs per S trimer
